According to patent US20230348605A1 (published 2023):

Legend:
[1] = biological target: T1, fibronectin (FN) containing the EIIIB domain, in the ECM of aortic endothelial cells from control/wild type … (mouse, UniProt P11276 33-2477); experiment: biotinylated NJB2 detected with streptavidin-Alexa488 on endothelial cells and their ECM
T1 construct: whole, on cells; Protein stood in the cell-derived extracellular matrix, not on the cell membrane; also called EIIIB domain of FN
Text: The NJB2 was site-specifically labelled with biotin via sortagging and detected with streptavidin-Alexa488. […] The αEIIIB control was cells stained with mouse monoclonal IgG specific to an epitope in the EIIIB domain of FN. The negative control, C, was unstained cells.

[2] = biological target: T2, FN-EIIIB in human patient tissue (PDAC stroma; metastases on a tissue array) (human, UniProt P02751 32-2477); experiment: immunohistochemistry on a multi-organ metastatic tissue array
T2 construct: Endogenous protein in tissue sections; also called EIIIB expressed in human PDAC stroma; stromal FN-EIIIB
Text: To investigate the expression of EIIIB in metastasis samples from multiple patients, we stained a multi-organ tissue array of samples from various metastatic sites derived from 104 patients with NJB2-biotin. […] In parallel, similar results were obtained with a monoclonal anti-EIIIB antibody (AM3, data not shown). These metastases to multiple organs (21 distinct sites) were derived from 17 different primary sites, including rectum, pancreas, lung, ovary, stomach and thyroid among others (Table 4). Among the EIIIB-positive biopsies, ~32% were metastases to the lymph nodes at the metastatic sites (Table 4). This wide expression of EIIIB at metastatic sites in multiple organs and derived from multiple types of primary tumors further broadens the potential applications of NJB2-based imaging and therapeutic applications.

[3] = biological target: T3, EIIIB domain of fibronectin; experiment: BLI
T3 construct: domain: EIIIB domain; also called recombinantly expressed EIIIB domain of FN
T3 sequence (P02751 1271-1359): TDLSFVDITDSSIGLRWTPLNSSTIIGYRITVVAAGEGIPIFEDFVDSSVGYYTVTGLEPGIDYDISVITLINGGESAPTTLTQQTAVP

T1 sequence (P11276 33-2477): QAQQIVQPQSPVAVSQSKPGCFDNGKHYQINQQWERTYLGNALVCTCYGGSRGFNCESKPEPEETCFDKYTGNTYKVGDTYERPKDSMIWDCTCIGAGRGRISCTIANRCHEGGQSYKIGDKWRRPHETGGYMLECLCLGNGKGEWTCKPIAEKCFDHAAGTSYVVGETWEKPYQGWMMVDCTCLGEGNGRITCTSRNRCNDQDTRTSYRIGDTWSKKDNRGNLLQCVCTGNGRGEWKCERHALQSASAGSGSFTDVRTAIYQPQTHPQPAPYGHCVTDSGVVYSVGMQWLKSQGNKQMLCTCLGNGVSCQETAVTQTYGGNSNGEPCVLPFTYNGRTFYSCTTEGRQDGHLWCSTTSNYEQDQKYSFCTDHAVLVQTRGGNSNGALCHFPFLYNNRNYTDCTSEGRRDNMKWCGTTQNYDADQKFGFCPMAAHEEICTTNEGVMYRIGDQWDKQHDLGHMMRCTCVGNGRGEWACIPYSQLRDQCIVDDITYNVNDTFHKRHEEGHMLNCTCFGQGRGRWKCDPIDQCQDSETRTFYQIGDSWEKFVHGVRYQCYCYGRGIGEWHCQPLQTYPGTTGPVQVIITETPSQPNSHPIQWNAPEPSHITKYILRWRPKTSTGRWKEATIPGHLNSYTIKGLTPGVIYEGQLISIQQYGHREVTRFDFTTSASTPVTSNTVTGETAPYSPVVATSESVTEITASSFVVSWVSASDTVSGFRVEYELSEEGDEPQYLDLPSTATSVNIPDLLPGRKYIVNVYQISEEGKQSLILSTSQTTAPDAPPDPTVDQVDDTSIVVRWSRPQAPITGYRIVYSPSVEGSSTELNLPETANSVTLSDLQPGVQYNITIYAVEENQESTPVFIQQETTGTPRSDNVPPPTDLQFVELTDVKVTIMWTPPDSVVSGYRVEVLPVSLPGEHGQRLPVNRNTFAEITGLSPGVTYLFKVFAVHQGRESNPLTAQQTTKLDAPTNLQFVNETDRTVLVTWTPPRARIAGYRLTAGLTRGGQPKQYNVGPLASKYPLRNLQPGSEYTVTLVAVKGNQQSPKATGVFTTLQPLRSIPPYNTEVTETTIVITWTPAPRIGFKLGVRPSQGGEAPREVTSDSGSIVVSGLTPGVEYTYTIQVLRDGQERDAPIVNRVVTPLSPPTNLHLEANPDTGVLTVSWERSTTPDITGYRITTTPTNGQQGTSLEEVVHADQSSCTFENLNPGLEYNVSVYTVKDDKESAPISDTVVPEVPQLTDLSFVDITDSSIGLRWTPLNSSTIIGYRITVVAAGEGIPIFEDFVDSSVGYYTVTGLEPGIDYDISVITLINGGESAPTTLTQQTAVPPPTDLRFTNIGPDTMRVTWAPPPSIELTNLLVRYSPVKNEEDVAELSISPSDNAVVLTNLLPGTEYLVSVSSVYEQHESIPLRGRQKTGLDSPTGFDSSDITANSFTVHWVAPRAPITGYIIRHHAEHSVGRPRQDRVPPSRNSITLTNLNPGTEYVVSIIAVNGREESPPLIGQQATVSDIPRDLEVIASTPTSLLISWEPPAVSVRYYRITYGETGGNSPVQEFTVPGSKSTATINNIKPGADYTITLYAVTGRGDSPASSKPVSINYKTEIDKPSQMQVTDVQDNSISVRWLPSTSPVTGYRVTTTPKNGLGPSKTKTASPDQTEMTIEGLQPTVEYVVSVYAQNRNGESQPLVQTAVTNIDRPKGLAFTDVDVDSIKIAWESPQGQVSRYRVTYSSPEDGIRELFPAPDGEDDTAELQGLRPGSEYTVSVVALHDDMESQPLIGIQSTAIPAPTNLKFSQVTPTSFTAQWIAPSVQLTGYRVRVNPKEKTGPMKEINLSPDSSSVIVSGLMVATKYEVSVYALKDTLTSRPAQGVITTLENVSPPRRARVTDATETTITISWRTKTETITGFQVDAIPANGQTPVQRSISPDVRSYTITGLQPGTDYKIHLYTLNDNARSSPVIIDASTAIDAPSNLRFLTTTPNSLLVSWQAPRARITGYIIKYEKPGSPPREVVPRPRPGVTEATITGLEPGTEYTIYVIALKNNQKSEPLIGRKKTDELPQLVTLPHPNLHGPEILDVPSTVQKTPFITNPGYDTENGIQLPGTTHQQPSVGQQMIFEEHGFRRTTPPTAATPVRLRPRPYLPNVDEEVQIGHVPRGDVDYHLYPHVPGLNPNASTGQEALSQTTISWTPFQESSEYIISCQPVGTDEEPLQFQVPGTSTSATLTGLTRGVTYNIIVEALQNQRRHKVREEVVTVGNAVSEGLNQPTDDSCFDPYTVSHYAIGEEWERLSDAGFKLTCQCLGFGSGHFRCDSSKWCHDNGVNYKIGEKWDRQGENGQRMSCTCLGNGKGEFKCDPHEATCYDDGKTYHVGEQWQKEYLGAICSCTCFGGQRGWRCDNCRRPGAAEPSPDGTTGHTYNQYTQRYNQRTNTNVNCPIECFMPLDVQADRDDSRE
T2 sequence (P02751 32-2477): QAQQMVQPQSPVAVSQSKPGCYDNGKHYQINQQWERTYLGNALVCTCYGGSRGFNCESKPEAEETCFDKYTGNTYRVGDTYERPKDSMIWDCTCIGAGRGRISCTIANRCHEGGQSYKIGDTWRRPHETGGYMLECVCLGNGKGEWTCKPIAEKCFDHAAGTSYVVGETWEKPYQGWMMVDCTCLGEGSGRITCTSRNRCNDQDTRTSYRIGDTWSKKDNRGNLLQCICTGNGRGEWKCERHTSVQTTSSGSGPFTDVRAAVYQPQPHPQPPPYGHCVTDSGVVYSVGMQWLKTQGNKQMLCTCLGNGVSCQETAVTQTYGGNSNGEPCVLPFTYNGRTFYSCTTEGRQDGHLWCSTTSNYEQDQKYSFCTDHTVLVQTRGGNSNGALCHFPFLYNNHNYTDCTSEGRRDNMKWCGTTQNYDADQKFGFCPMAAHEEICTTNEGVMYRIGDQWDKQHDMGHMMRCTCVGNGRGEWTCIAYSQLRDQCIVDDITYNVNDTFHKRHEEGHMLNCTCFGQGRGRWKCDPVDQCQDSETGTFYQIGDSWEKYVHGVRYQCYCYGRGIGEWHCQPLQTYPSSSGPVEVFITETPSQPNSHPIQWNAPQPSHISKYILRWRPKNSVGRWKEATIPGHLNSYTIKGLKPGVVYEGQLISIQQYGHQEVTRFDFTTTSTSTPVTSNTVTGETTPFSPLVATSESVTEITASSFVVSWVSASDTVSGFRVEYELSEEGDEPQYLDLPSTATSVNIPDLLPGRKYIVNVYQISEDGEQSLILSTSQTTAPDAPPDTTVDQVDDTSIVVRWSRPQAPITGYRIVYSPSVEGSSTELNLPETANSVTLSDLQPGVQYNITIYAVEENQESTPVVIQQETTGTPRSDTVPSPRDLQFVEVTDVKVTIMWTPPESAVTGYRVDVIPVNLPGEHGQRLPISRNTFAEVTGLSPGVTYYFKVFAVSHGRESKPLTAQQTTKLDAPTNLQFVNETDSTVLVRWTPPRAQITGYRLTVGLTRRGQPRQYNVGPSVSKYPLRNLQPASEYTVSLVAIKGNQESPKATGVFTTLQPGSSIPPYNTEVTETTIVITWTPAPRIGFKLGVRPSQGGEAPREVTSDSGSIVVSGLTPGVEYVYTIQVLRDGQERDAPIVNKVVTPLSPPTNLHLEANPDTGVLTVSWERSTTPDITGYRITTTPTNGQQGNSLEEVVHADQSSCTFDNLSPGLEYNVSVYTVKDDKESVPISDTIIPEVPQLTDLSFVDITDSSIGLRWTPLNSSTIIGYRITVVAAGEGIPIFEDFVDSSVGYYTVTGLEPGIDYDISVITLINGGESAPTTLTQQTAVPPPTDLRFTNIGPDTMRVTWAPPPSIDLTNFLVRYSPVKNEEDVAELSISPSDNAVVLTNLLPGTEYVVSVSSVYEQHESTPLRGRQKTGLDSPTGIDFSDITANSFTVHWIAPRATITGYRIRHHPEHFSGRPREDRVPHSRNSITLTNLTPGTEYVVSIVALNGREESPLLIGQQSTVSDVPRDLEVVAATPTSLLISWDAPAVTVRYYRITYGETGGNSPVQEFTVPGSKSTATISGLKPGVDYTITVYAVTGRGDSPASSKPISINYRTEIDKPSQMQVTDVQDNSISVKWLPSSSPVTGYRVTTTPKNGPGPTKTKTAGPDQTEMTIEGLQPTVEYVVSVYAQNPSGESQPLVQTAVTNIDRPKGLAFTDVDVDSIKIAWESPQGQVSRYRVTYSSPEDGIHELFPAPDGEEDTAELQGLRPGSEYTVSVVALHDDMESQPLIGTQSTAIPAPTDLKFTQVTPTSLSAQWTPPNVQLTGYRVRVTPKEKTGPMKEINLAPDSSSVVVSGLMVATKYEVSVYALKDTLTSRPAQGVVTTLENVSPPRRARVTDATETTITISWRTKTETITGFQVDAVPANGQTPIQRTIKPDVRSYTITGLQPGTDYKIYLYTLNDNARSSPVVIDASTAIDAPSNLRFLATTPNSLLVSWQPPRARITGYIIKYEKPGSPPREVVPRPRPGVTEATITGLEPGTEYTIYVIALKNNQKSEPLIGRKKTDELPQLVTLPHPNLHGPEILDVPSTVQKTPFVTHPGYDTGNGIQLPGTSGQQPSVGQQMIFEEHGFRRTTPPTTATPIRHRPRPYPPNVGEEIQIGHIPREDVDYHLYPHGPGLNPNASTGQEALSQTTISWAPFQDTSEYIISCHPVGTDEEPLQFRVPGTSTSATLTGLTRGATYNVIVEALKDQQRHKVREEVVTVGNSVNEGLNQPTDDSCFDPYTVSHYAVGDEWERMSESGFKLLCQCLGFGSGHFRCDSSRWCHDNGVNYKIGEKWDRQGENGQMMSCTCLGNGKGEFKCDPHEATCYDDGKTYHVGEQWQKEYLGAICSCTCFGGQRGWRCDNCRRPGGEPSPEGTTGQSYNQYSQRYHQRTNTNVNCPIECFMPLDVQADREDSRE

B1: NJB2 (VHH)
VHH: QVQLVETGGGLVQAGGSLRLSCAASGSTFSHNAGGWYRQAPEKQRELVAGISSDGNINYADSVKDRFTISRDNASNTMYLQMNNLKPEDTAVYVCNIRGSYGNTYYSRWGQGTQVTVSS
modifications: site-specifically labelled via sortagging (LPETG tag) with biotin, Texas Red or 64Cu in the staining and imaging assays
notes: After sortagging the C-terminus differs (label in place of the residues after LPET); also called VHH NJB2; VHH-NJB2
binding result [1]: binds | binding result [2]: binds | Kd [3]: ~4 nM
